Results as given in the supplement of paper PMC9170038.

Tested on: MS2 coat protein
Assay: apparent KD of MS2 coat protein; designed switch direction (-1 OFF switch, 1 ON switch): 1; higher = weaker reporter binding
Summary of the method: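 RNA switches sharing common flanks were transcribed by stalled E. coli RNA polymerase on Illumina chips. A doubling series of SNAP-549-labelled MS2 coat protein, from 0.7 or 1.5 nM to 3 µM, was applied in Tris-HCl pH 7.5 buffer with KCl, MgCl2, BSA, DTT, tRNA and Tween-20. Each step lasted 0.8–1.5 h at the bottom of the series and 10–20 min at the top. Normalised cluster fluorescence was curve-fitted, giving apparent KD as the per-design median over clusters.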

[1] = input ligand: microRNA oligo, concentration not stated
[2] = Eterna round: R95, input ligand: FMN 200 uM
[3] = Eterna round: R95, input ligand: microRNA oligo, concentration not stated
[4] = Eterna round: R95, input ligand: none

| Sequence | apparent KD of MS2 coat protein (input ligand: FMN 200 uM) [nM] | apparent KD of MS2 coat protein [1] [nM] | apparent KD of MS2 coat protein (input ligand: none) [nM] | apparent KD of MS2 coat protein [2] [nM] | apparent KD of MS2 coat protein [3] [nM] | apparent KD of MS2 coat protein [4] [nM] |
| --- | --- | --- | --- | --- | --- | --- |
| UUAAUUUACUGAGGAUAUCGUGUCGACUGAGUUGACAUGAGGAUCACCCAUGUGAGAAGUGGUAUCGAGAAGGCAGUAUUCAUA [JR_SSNG2_Sub023] (Eterna round: R96, puzzle: Same State NG 2) | 16.1 | 28.9 | 42 |  |  |  |
| AACACACAUGAGGAUCACCCAUGUACCGAAAUCACAGGAUAUACAUAACUGAAUAACAUUGUAGAAGGGUGGCCGG [Enorerteso] (puzzle: Same State 1) |  |  |  | 23.7 | 65.7 | 91.4 |
| UCUGCAAUUAACGCCUACAUGAGGAUCACCCAUGUAUGUAGGCAGGAUAUCGUUUGCUUUGCAAACGAGAAGGGCUGUAGUAGC [salish99_SSNG3_R04_001] (Eterna round: R96, puzzle: Same State NG 3) | 52.4 | 49.2 | 61.6 |  |  |  |
| UAAAUAAAGUAAGGAUAUACAUGAGGAUUUCUCGUAGAAGGUACAAGACAUGAGGAUCACCCAUGUAUCGCUCCGUAGAGCGUA [Mat - Same State NG 1 - JL mod - D21] (Eterna round: R96, puzzle: Same State NG 1) |  | 57.7 |  |  |  |  |
| GCUCGUGGUAUUGUCUACAUGAGGAUCACCCAUGUAGGUGCGGAGGAUAUUUACGUGUCUCAUGUAGAGAAGGCCGUCACGAGC [SameState NG3 #97] (Eterna round: R96, puzzle: Same State NG 3) | 52.2 | 190 | 297 |  |  |  |
| AUAGUUGCCGAAGGAUAUGAUGAGGAUCACCCAUCAGAAGGUUGGCUAUUGGGCUGACAUGAGGAUCACCCAUGUUUCGGUGUU (Eterna round: R96, puzzle: Same State NG 1) | 19.2 | 17.1 | 29.1 |  |  |  |
| UGUUGUAUUACAGGAUAUCUAUUGUAUUUAUUUAGAGAAGGGUAUUCACAUGAGGAUCACCCAUGUAUAUACGAGGAAGUUGUG [JMF's solution 73] (Eterna round: R96, puzzle: Same State NG 1) |  | 46.7 |  |  |  |  |
| AAAAGUUGCGGGCAGGAUAUGUAUUAAAAUACAUGAGGAUCACCCAUGUGCGGGUAUAACACCCGACAGAAGGGCCAAACGCGAC [Mat - Same State 2 - Mod of UCT - D96] (puzzle: Same State 2) |  |  |  | 27.4 | 178 | 333 |
| CUGAGCGAUCAAGGAUAUCACGUCGAUUAGACGUGAGAAGGUGAUCCAUACAUGAGGAUCACCCAUGUAUAACAUGAAGCUCAG [SSNG1/8-A2] (Eterna round: R96, puzzle: Same State NG 1) | 414 | 507 | 861 |  |  |  |
| AGCUAGUACCAAGGAUAUACGAACAUGAGGAUCACCCAUGUAUACAUGGUUUAAUGAGACUACAUGUAGAAGGUGGUACUAGCA [SameState NG2 #12] (Eterna round: R96, puzzle: Same State NG 2) | 387 | 338 | 538 |  |  |  |
| UGAAUAGUGAUAGGAUAUACAUGAGGAAUCCUCGUAGAAGGAUCAUAACAUGAGGAUCACCCAUGUAGCGCUCGAAAGAGCGCA [Mat - Same State NG 1 - JL mod - D55] (Eterna round: R96, puzzle: Same State NG 1) | 244 | 207 | 56.5 |  |  |  |
| GCUCGGAUGAUGGCCCACAUGAGGAUCACCCAUGUGAGUGGGCAGGAUAUCUAGAUUAAGGAUGUAGAGAAGGGCCUACCGAGC [SameState NG3 #34] (Eterna round: R96, puzzle: Same State NG 3) | 2070 | 100 | 759 |  |  |  |
| GGAGCCGGCACUGAGGAUAUUCAUAUUAAAACAUGAGGAUCACCCAUGUAGGCCAGAAGGCCUUGGGAGAAGGCAGGUCGACUCG [Diqureveri] (Eterna round: R96, puzzle: Same State 2) | 24.5 | 159 | 209 |  |  |  |
| GCGGAACAUGAGGAUCACCCAUGUAAAGGGUGUAAAGGAUAUUAUUGGGAGAAGGUAGGGUAAGAAGGUUGCUUGG [JR_SS1_Sub088] (puzzle: Same State 1) |  |  |  | 609 | 666 | 1240 |
| AUGGGCAUGCUAGGAUAUUAUAGUAGGCAGCAAUGAGAAGGAGUAUCCCGUUGCUAUCACGCACCACAUGAGGAUCACCCAUGU [Eternabot solution 32] (Eterna round: R96, puzzle: Same State NG 1) | 24.9 | 19.5 | 28.3 |  |  |  |
| UGGUACAUGGGAGGAUAUCUCAUGGAGACAUGAGGAUCACCCAUGUAGAUGGGCGGUAACGCCGGAGAGAAGGCCCAUGUACCU [JL SSNG1 3.70] (Eterna round: R96, puzzle: Same State NG 2) | 29.2 | 41.6 | 58.1 |  |  |  |

| Sequence | apparent KD of MS2 coat protein (input ligand: FMN 200 uM) [nM] | apparent KD of MS2 coat protein [1] [nM] | apparent KD of MS2 coat protein (input ligand: none) [nM] | apparent KD of MS2 coat protein [2] [nM] | apparent KD of MS2 coat protein [3] [nM] | apparent KD of MS2 coat protein [4] [nM] |
| --- | --- | --- | --- | --- | --- | --- |
| GUGGUGUAGAUACAGGAUAUGUUGCUCGUAACAUGAGGAUCACCCAUGUAUCUAUGAGAUUAAAUGCAGAAGGGUGCACACCACA [Mat - Same State 2 - Mod of UCT - D72] (puzzle: Same State 2) |  |  |  | 24 | 460 | 297 |
| UGGUACAUGGGAGGAUAUCCUCAGGAGACAUGAGGAUCACCCAUGUAAUUUAAGCCGAAAGGCAUGGAGAAGGCCCAUGUACCU [JL SSNG1 3.80] (Eterna round: R96, puzzle: Same State NG 2) | 19.5 | 94.1 | 129 |  |  |  |
| GCUGCGAUUAACGCCUACAUGAGGAUCACCCAUGUAUGUAGGCAGGAUAUCGUUUGCUUUGCAAACGAGAAGGGCUGUAGUAGC [salish99_SSNG3_R04_004] (Eterna round: R96, puzzle: Same State NG 3) | 39.4 | 68.4 | 86.9 |  |  |  |
| UGGUGUAACAUGAGGAUCACCCAUGUCACAACCCGGAUAGAGUAGGAUAUGGGCUGAUCACGCAUCCAGAAGGGCUCAUACUUU [Eternabot solution 19] (Eterna round: R96, puzzle: Same State NG 3) | 19.7 | 14.3 | 16.8 |  |  |  |
| AGAUCAUGACGAGGAUAUGGUACAUGAGGAUCACCCAUGUAUGUACUAUAACCCGUAUGAGGAAUCCAGAAGGCGUCGUGGUCA [JL SSNG2 1.17] (Eterna round: R96, puzzle: Same State NG 2) | 23.8 | 71.8 | 85.9 |  |  |  |
| AGCUUUUAAUUAGGAUAUGGUCACAUGAGGAUCACCCAUGUAACGAUGAUAUAAUGUGGUCAAGACUAGAAGGGAUUGCUAACA [SameState NG2 #68] (Eterna round: R96, puzzle: Same State NG 2) | 589 | 357 | 355 |  |  |  |
| CAAACUUAGUAGGAUAGGUACCCAGGAUGACAUGAGGAUCACCCAUGUAAGAGCUUUUUGCUCGUCAUUAACAGUUG [JR_SHM208a_Sub017] (puzzle: Sensor for hsa-mir-208a) |  |  |  | 51.7 | 53 | 78.3 |
| GCAGUACAUGAGGAUCACCCAUGUCUCUAAAGUCGAGGAUAUGGGCAGGUUAUAUCCGAACCAGAAGGCGAGCUGC [SS1 Teenbexe 12] (puzzle: Same State 1) |  |  |  | 81.5 | 301 | 339 |
| CUAGGAGGAUGAGGAUAUGCAGAGGAUCACCCUGUAGAAGGCAAGAGAUGAGGAUAUGCAGAGGAUCACCCUGUAGAAGGCAAC [pwkr ssNG DX.1] (Eterna round: R96, puzzle: Same State NG 1) | 307 | 86.5 | 122 |  |  |  |
| AAGUAACAUGAGGAUCACCCAUGUGAGGUGAGCGUAGGAUAUCGAGAAGGAAGGGUGGAGCGAGAAGGACGAGAGG [JR_SS1_Sub0100] (puzzle: Same State 1) |  |  |  | 191 | 401 | 270 |
| AAAAGACAUGAGGAUCACCCAUGUACCAGGUCCACAGGAUAUCAUGCGUGGUUGAAUUCAUGAGAAGGGUGAGACA [Getied] (puzzle: Same State 1) |  |  |  | 48.7 | 188 | 311 |
| UCUUGGUUUUUGCUCGUUUUUUGUGUUGAACAUGAGGAUCACCCAUGUAUUGUACGAUCCAAUUUGAUAAUGGUCCG [JMF 61] (puzzle: Sensor for hsa-mir-208a) |  |  |  | 44.2 | 34.4 | 48.7 |
| GGUCUAGUUACAGGAUAUGCAUUGCUUUGCGAUGCAGAAGGGUGGUAACAUGAGGAUCACCCAUGUGGGCCAGCGCAAAAGCGC [JL SSNG1 cdp] (Eterna round: R96, puzzle: Same State NG 1) | 981 | 661 | 1440 |  |  |  |
| GAGGGACAGACCAACAUGAGGAUCACCCAUGUCCUCGCAGUUCAGGAUAUCUGGAGGAAGAAGAAAGAGAAGGGAAGGUGAACC [AK SSNG3-V2-35] (Eterna round: R96, puzzle: Same State NG 3) | 312 | 65.3 | 120 |  |  |  |
| AAUUAAUUAAUACAUGAGGAUCACCCAUGUAAUUAUUAGAUCAAGGAUAUCAGCUCGUUUAGAGCUGAGAAGGUGAUCACAUGU [SSNG3/18-A3] (Eterna round: R96, puzzle: Same State NG 3) |  | 211 |  |  |  |  |
